According to patent US20210347873A1 (SHANGHAI PHARMAEXPLORER, published 2021):
Each block holds one molecule with its values, some of them ahead of it.

Columns and labels:
[1] = biological target: cynomolgus BLyS (full length, arginine to histidine at position 132) on CHO-K1 cells (cynomolgus); test: flow cytometry, CHO-K1 cynoBLyS cells, antibody 13.3 nM
[2] = biological target: biotinylated hBLyS-ECD (human) (UniProt Q9Y275); test: blocking ELISA: biotinylated hBLyS-ECD on coated BAFF R, antibody 0.16 nM
[3] = biological target: human BLyS (full length, arginine to histidine at position 132) on CHO-K1 cells (human) (UniProt Q9Y275); test: flow cytometry, CHO-K1 hBLyS cells, antibody 13.3 nM
[4] = biological target: biotinylated hBLyS-ECD (human) (UniProt Q9Y275); test: blocking ELISA: biotinylated hBLyS-ECD on coated BAFF R, antibody 20 nM
[5] = biological target: biotinylated hBLyS-ECD (human) (UniProt Q9Y275); test: blocking ELISA: biotinylated hBLyS-ECD on coated BAFF R, antibody 0.00128 nM
[6] = biological target: cynomolgus BLyS (full length, arginine to histidine at position 132) on CHO-K1 cells (cynomolgus); test: flow cytometry, CHO-K1 cynoBLyS cells, antibody 66.7 nM
Target sequence in this assay (Q9Y275 other isoform, or with tags, fused parts or gaps limits assumed): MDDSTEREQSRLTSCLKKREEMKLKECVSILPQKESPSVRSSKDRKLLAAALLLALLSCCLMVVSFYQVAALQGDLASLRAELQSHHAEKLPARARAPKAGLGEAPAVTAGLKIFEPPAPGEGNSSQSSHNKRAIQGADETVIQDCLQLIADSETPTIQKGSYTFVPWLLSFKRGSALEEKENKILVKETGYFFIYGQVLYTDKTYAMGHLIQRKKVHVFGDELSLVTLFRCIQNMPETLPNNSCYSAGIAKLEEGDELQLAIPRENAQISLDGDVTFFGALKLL

[7] = biological target: biotinylated hBLyS-ECD (human) (UniProt Q9Y275); test: ELISA, biotinylated hBLyS-ECD captured on streptavidin; antibody 0.534 nM
[8] = biological target: human BLyS (full length, arginine to histidine at position 132) on CHO-K1 cells (human) (UniProt Q9Y275); test: flow cytometry, CHO-K1 hBLyS cells, antibody 0.00427 nM
[9] = biological target: biotinylated hBLyS-ECD (human) (UniProt Q9Y275); test: ELISA, biotinylated hBLyS-ECD captured on streptavidin; antibody 2.67 nM
[10] = biological target: cynomolgus BLyS (full length, arginine to histidine at position 132) on CHO-K1 cells (cynomolgus); test: flow cytometry, CHO-K1 cynoBLyS cells, antibody 0.534 nM
Target sequence in this assay (Q9Y275 other isoform, or with tags, fused parts or gaps limits assumed): as above

[11] = biological target: biotinylated hBLyS-ECD (human) (UniProt Q9Y275); test: blocking ELISA: biotinylated hBLyS-ECD on coated BAFF R, antibody 0.032 nM
[12] = biological target: biotinylated hBLyS-ECD (human) (UniProt Q9Y275); test: blocking ELISA: biotinylated hBLyS-ECD on coated BAFF R, antibody 100 nM
[13] = biological target: human BLyS (full length, arginine to histidine at position 132) on CHO-K1 cells (human) (UniProt Q9Y275); test: flow cytometry, CHO-K1 hBLyS cells, antibody 0 nM
[14] = biological target: T1, biotinylated hBLyS-ECD (human, UniProt Q9Y275 134-285, biotinylated with Biotin-X-X-NHS (molar ratio 7:1); sites not stated); test: ELISA on captured biotinylated hBLyS-ECD; antibody 2.67 nM
T1 construct: also called biotinylated immunogen; biotinylated hBLvS-ECD

[15] = biological target: T1, biotinylated hBLyS-ECD; test: BAFF R-coated ELISA, biotinylated hBLyS-ECD bound in presence of antibody 0.16 nM
[16] = biological target: T1, biotinylated hBLyS-ECD; test: BAFF R-coated ELISA, biotinylated hBLyS-ECD bound in presence of antibody 0.0064 nM
[17] = biological target: T1, biotinylated hBLyS-ECD; test: ELISA on captured biotinylated hBLyS-ECD; antibody 0.00427 nM
[18] = biological target: T1, biotinylated hBLyS-ECD; test: BAFF R-coated ELISA, biotinylated hBLyS-ECD bound in presence of antibody 0.032 nM
[19] = biological target: T2, biotinylated hBLyS-ECD (human, UniProt Q9Y275 134-285, biotinylated with Biotin-X-X-NHS (molar ratio 7:1), sites not stated); test: ELISA: biotinylated hBLyS-ECD captured on streptavidin, antibody titrated, HRP secondary antibody [label printed at the top of D00004]
T2 construct: The hBLyS-ECD of Embodiment 1 after biotinylation (Embodiment 2); also called biotinylated immunogen; BLyS protein; not shown: His tag of the pCPC vector
Experimental: (§1) Streptavidin was first diluted to a final concentration of 1.0 μg/mL with PBS, and then 50 μL of diluted streptavidin per well was aliquoted into 96-well ELISA plate, which was subsequently sealed with plastic film and incubated at 4° C. overnight. On the next day the plate was washed four times with the plate washing buffer [PBS buffer containing 0.05% (v/v) Tween20] and added with the blocking solution [PBS buffer containing 0.05% (v/v) Tween20 and 1% (w/w) BSA] and blocked for 2 hours at 37° C. The blocking solution was removed, the biotinylated hBLyS-ECD prepared in Embodiment 2 was diluted with PBS to a final concentration of 50 ng/mL and then aliquoted into the 96-well ELISA plate at 50 μL per well and incubated for 1 hour at 37° C. After rinsing the plate four times with the plate washing buffer [PBS buffer containing 0.05% (v/v) Tween20], 100 μl of the purified lead antibody harvested in Embodiment 1 and 2 was pipetted into each well. After incubation for 1 hour at 37° C., the plate was rinsed four times with the plate washing buffer [PBS buffer containing 0.05% (v/v) Tween20]. HRP-labeled (horseradish peroxidase) secondary antibody (purchased from Sigma) was added in and incubated at 37° C. for 1 hour. The plate was then rinsed four times with the plate washing buffer [PBS buffer containing 0.05% (v/v) Tween20]. 100 μL of TMB substrate was aliquoted into each well and after incubation for 5 minutes at room temperature, 100 μL of stop solution (1.0 N HCl) was aliquoted into each well. A₄₅₀ₙₘ values were read via an ELISA plate reader (SpectraMax M5e purchased from Molecular Devices) and the results were shown in FIGS. 5A-5B and Table 10.

[20] = biological target: T2, biotinylated hBLyS-ECD; test: ELISA: biotinylated hBLyS-ECD captured on streptavidin, antibody titrated, HRP secondary antibody
Experimental: as §1, with “The plate was then rinsed four times with the plate washing buffer [PBS buffer containing 0.05% (v/v) Tween20]. 100 μL of TMB substrate was aliquoted into each well and after incubation for 5 minutes at room temperature, 100 μL of stop solution (1.0 N HCl) was aliquoted into each well.” left out

Chain of human BLyS (full length, arginine to histidine at position 132) on CHO-K1 cells (human) (Q9Y275 whole entry R130H, the tested form may be a part): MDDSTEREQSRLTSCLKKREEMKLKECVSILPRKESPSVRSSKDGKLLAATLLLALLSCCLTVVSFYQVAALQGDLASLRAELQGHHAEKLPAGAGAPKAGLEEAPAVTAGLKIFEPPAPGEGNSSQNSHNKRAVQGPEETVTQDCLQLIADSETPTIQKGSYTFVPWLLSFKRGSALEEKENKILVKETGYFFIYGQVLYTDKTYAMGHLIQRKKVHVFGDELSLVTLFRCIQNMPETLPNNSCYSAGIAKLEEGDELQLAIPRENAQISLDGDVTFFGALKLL

MFI [1]: 20.7 MFI
OD450 nm [2]: 1.47 OD450 nm
MFI [3]: 31.7 MFI
OD450 nm [4]: 1.36 OD450 nm
OD450 nm [5]: 1.42 OD450 nm
MFI [6]: 21.6 MFI
OD450 nm [7]: 0.0594
MFI [8]: 30.9 MFI
OD450 nm [9]: 0.0659
MFI [10]: 20 MFI
OD450 nm [11]: 1.45 OD450 nm
OD450 nm [12]: 1.3 OD450 nm
MFI [13]: 30.3 MFI
Molecule: mIgG Control (antibody)

MFI [1]: 26.7 MFI
OD450 nm [2]: 1.08 OD450 nm
MFI [3]: 35.1 MFI
OD450 nm [4]: 1.06 OD450 nm
OD450 nm [5]: 1.13 OD450 nm
MFI [6]: 44.2 MFI
OD450 nm [7]: 0.0916
MFI [8]: 32.3 MFI
OD450 nm [9]: 0.0956
MFI [10]: 22.6 MFI
OD450 nm [11]: 1.11 OD450 nm
OD450 nm [12]: 1.22 OD450 nm
MFI [13]: 27.2 MFI
Molecule: hIgG Control (antibody)

OD450 nm [14]: 2.25 OD450 nm
OD450 nm [15]: 1.79 OD450 nm
OD450 nm [16]: 1.96 OD450 nm
OD450 nm [17]: 0.194 OD450 nm
OD450 nm [18]: 1.84 OD450 nm
B1: c97A3C2H4 (antibody, V domains shown)
VH: EVKLVESGGGLVQPGGSLKLSCAASGFTFSTYTMSWVRQTPEKRLEWVAYISYGGGSTSYPDTVKGRFTISRDNAKNTLYLQMSSLKSEDTAIYYCTRHVTVVENSMDYWGQGTSVTVSS
VL: DILLTQSPDILSVSPGERVSFSCRASQSIGTSIHWYQQRTNGSPRLLIKYVSESFSGTPSRFSGSGSGTAFTLTINSVESEDIADYYCQQTHSWPWTFGGGTKLEIK
notes: also called chimeric antibody c97A3C2H4

Continued, molecule first:

B2: 97A3C2H4 (antibody, V domains shown)
VH: EVKLVESGGGLVQPGGSLKLSCAASGFTFSTYTMSWVRQTPEKRLEWVAYISYGGGSTSYPDTVKGRFTISRDNAKNTLYLQMSSLKSEDTAIYYCTRHVTVVENSMDYWGQGTSVTVSS
VL: DILLTQSPDILSVSPGERVSFSCRASQSIGTSIHWYQQRTNGSPRLLIKYVSESFSGTPSRFSGSGSGTAFTLTINSVESEDIADYYCQQTHSWPWTFGGGTKLEIK
notes: Mouse hybridoma antibody purified on Protein G
EC50 (read off the curve) [19]: ~0.2 nM

B3: L9G7 (antibody, human IgG1, V domains shown)
VH: QIQLVQSGAEVKKPGASVKVSCKASGYTFTSYGISWVRQAPGQGLEWMGWISAYNGNTNYAQKLQGRVTMTTDTSTSTAYMELRSLRSDDTAVYYCARTYYDILTGYYYYGMDVWGQGTTVTVSS
VL: EIVLTQSPGTLSLSPGERATLSCRTSQSVDTYLAWYQQKPGQAPRLLIYDASNRATGIPARFSGSGSGTDFTLTISSLEPEDFAVYYCQQRSNWPLTFGGGTKVEIK
EC50 (read off the curve) [20]: ~0.2 nM

B4: 111D10D6G3 (antibody, V domains shown)
VH: QVQLQQPGAELVKPGASVKMSCKASGYTFTRHWITWVKQRPGQGLEWIGDIFPGSGSINYNEKFKSEATLTVEKSSSTAYMQLSSLTSEDSAVYYCARGDVDVWGTGTTVTVSS
VL: DIQMTQSPSSLSASLGERVSLTCRASQEIRGYLSWLQQKPNGTIKRLIYAASTLDSGVPKRFSATRSGSDFSLTISSLESEDFADYYCLQYASYPFTFGSGTKLEIK
notes: as for B2
EC50 (read off the curve) [19]: ~0.2 nM

B5: L1D12 (antibody, human IgG1, V domains shown)
VH: QVQLVQSGGGLVQPGGSLRLSCAASGFTVSSNYMSWVRQAPGKGLEWVSVIYSGGSTYYADSVKGRFTISRDNSKNTLYLQMNSLRAEDTAVYYCARGFHDILTGYGMDVWGQGTTVTVSS
VL: SSELTQDPAVSVALGQTVRITCQGDSLRNYYAGWYQQKPGQAPVLVIYGKNNRPSGIPDRFSGSSSGNTASLTITGTQAEDEADYYCSSRDNSGTHLVEFGGGTKLTVL
notes: also called LID12
EC50 (read off the curve) [20]: ~0.1 nM

B6: c8E7D9C7F5 (antibody, V domains shown)
VH: QVQLQQSGVELARPGASVKLSCKASGYTFTSYGISWVKQRTGQALEWIGEIYPRSGNTYYNEKFKGKATLTADKSSSTAYMELRSLTSEDSAVYFCARSGPITTLVATDYGMDYWGQGTSVTVSS
VL: DIVLTQSPASLAVSLGQRATISCRASKSVSTSSYSYMHWYQQKPGQPPKLLIKFASNLESGVPARFSGSGSGTDFTLNIHPVEEEDAATYYCQHSREFPYTFGGGTKLEIK
notes: also called chimeric antibody c8E7D9C7F5
OD450 nm [14]: 2.21 OD450 nm
OD450 nm [15]: 1.85 OD450 nm
OD450 nm [16]: 2.01 OD450 nm
OD450 nm [17]: 0.198 OD450 nm
OD450 nm [18]: 1.97 OD450 nm
